B1: 9976-TCR38-2 (TCR)
TCR alpha: AQSVTQLGSHVSVSEGALVLLRCNYSSSVPPYLFWYVQYPNQGLQLLLKYTTGATLVKGINGFEAEFKKSETSFHLTKPSAHMSDAAEYFCAVTEPGGYQKVTFGTGTKLQVIPNIQNPEPAVNIQNPEPAVYQLKDPRSQDSTLCLFTDFDSQINVPKTMESGTFITDKTVLDMKAMDSKSNGAIAWSNQTSFTCQDIFKETNATYPSSDVPCDATLTEKSFETDMNLNFQNLLVIVLRILLLKVAGFNLLMTLRLWSS
TCR beta: GAVVSQHPSRVICKSGTSVKIECRSLDFQATTMFWYRQFPKQSLMLMATSNEGSKATYEQGVEKDKFLINHASLTLSTLTVTSAHPEDSSFYICSATGQHAGANVLTFGAGSRLTVLEDLRNEDLRNVTPPKVSLFEPSKAEIANKQKATLVCLARGFFPDHVELSWWVNGKEVHSGVSTDPQAYKESNYSYCLSSRLRVSATFWHNPRNHFRCQVQFHGLSEEDKWPEGSPKPVTQNISAEAWGRADCGITSASYQQGVLSATILYEILLGKATLYAVLVSTLVVMAMVKRKNS
B2: 9976-TCR38-2 (protein)
chain 1: QSVTQLGSHVSVSEGALVLLRCNYSSSVPPYLFWYVQYPNQGLQLLLKYTTGATLVKGINGFEAEFKKSETSFHLTKPSAHMSDAAEYFCAVTEPGGYQKVTFGTGTKLQVIP
chain 2: AVVSQHPSRVICKSGTSVKIECRSLDFQATTMFWYRQFPKQSLMLMATSNEGSKATYEQGVEKDKFLINHASLTLSTLTVTSAHPEDSSFYICSATGQHAGANVLTFGAGSRLTVL

Experiments:
[1] = target: KRAS G12V presented by HLA-DRB1*07:01 (human), P01116; assay: cell-based or functional assay
[2] = target: KRAS G12V peptide on HLA-DRA*01:01 / HLA-DRB1*07:01 (human); assay: NFAT-luciferase; peptide titration in the Jurkat-NFAT and COS-7 system; full-length, on cells; conditions: chains Valpha:Vbeta

peptide concentration at which reactivity is still seen (peptide titration, Jurkat-NFAT & COS-7 system) [1] | lowest peptide concentration with reactivity [2] | Binder
1 ng/mL | – | B1
– | < 1 ng/mL | B2

From patent US20250216381A1
